Measurements: patent US20120165265A1, “Calcium Signaling Modulators Involving STIM and ORAI Proteins” (priority 2009, published 2012)

Legend:
[1] = biological target: T1, CRAC channels (Homo sapiens, UniProt Q96D31); test: [Ca2+]i imaging in HEK 293 cells expressing STIM1 fragment and Orai1; format: cell-based; conditions: for effect on CAD-induced sustained elevation of [Ca2+]i: HEK 293 cells expressing Orai1 and CAD
T1 construct: expressed in transfected cells; host or cells: HEK 293
Description: Ca^2+ Imaging. For FIG. 2, cells were loaded at 37° C. in DMEM with 1 μM fura-2/AM for 30 min. Ratiometric Ca2+ imaging was performed at 340 and 380 nm in 2 mM Ca2+ Ringer's solution with a Nikon Eclipse 2000-U inverted microscope equipped with a fluorescent arc lamp, excitation filter wheel, and a Hamamatsu Orca CCD camera. Images were collected using Openlab (Improvision) and analyzed using Igor Pro.
To determine if CAD activates store operated Ca^2+ influx in cells, we measured [Ca^2+]i in HEK 293 cells expressing CAD and Orai1.

[2] = biological target: T2, Orai1 (Homo sapiens, UniProt Q96D31); test: Co-immunoprecipitation with Orai1 in HEK 293T cells; format: binding; design: expressed in transfected cells; host or cells: HEK 293; conditions: 150 mM salt, 1% Triton X-100
Description: (§1) Immunoprecipitation and Immunoblot Analysis. Transfected HEK 293T cells (12-24 h) were washed with PBS and lysed in 50 mM Tris-HCl pH 7.5, 150 mM NaCl, 1% Triton X-100, and protease inhibitors. Lysates were spun at 12,000 rpm for 10 min, and the supernatant was incubated with anti-Flag M2 agarose beads (Sigma), or anti-myc or -HA antibody followed by IgG agarose beads (Pierce). Lysates and immunoprecipitates were subjected to SDS-PAGE, probed with HRP-conjugated secondary antibody and detected by enhanced chemiluminescence (Pierce).
CAD Associates with Orai1 in vivo and in vitro. Because cytosolic CAD is a potent activator of Orai1 channels and is not associated with the ER, we hypothesized that CAD binds to Orai1. To test this idea, we first expressed YFP-CAD with or without myc-Orai1 in HEK 293 cells and examined its intracellular localization. […] To provide additional evidence that CAD and Orai1 are part of the same protein complex we expressed Flag-tagged CAD and GFP-tagged Orai1 in HEK 293T cells and immunoprecipitated CAD with anti-Flag antibodies. GFP-myc-Orai1 was detected in the immunoprecipitates from cells co-expressing CAD and Orai1 but not from cells expressing CAD or Orai1 alone (FIG. 3B).
Thus, CAD and Orai1 form a protein complex in mammalian cells.

[3] = biological target: T2, Orai1; test: Whole-cell patch clamp recording of ICRAC in transfected HEK 293 cells; format: cell-based; design: expressed in transfected cells; host or cells: HEK 293
Description: Electrophysiology. HEK 293 cells were transfected 8-24 h prior to electrophysiology experiments with STIM1- and Orai1-derived constructs in a 1:1 mass ratio using Lipofectamine 2000. […] ICRAC in cells cultured without LaCl3 was similar to that in cells cultured with LaCl3, but most cells without LaCl3 died soon after break-in.
Currents were recorded using standard whole-cell patch clamp techniques (Prakriya and Lewis, 2001). Pipettes of resistance 2-5 MΩ were filled with an internal solution containing (in mM) 150 Cs aspartate, 8 MgCl2, 10 EGTA, and 10 HEPES (pH 7.2 with CsOH). Currents were sampled at 5 kHz and filtered at 2 kHz, and all voltages were corrected for the junction potential of the pipette solution relative to Ringer's in the bath (−13 mV).
Patch-clamp Experiments. Pipette-membrane seals were formed in 2 mM Ca^2+ Ringer's solution. After break-in to the whole-cell configuration, voltage stimuli consisting of a 100-ms step to −100 mV followed by a 100-ms ramp from −100 to +100 mV were delivered every 5 s from the holding potential of +30 mV. After the currents reached a steady level (˜300 s for wild-type STIM1), the external solution was changed via a multibarrel local perfusion pipette to a high-Ca^2+ Ringer's containing (in mM) 130 NaCl, 4.5 KCl, 20 CaCl2, 1 MgCl2, 10 D-glucose, and 5 HEPES (pH 7.4 with NaOH). All data were leak-corrected using the current elicited in 20 mM Ca^2+ Ringer's+10 μM LaCl3 at the end of the each experiment. LaCl3 and 2-APB were added directly to parent solutions on the day of the experiment from 10 mM and 100 mM stocks in H2O and DMSO, respectively.
As a definitive test for CRAC channel activation, we conducted whole-cell patch clamp recordings from HEK 293 cells transiently transfected with myc-Orai1 and either YFP-STIM1 or YFP-CAD. In cells expressing full length YFP-STIM1, ICRAC appeared over several minutes following break-in, consistent with the typical slow activation seen in response to passive store depletion (FIG. 2D). […] In contrast, inward current was present from the moment of break-in in cells expressing YFP-CAD (FIG. 2E). This current was identified as ICRAC based on its dependence on extracellular Ca^2+, inward rectification, sequential enhancement and inhibition by 2-APB, and inhibition by La^3+ (FIG. 2E and FIG. 10 C, D). ICRAC was not observed at break-in in HEK 293 cells transfected with YFP or YFP-CAD in the absence of Orai1 (FIG. 2F), consistent with the low level of endogenous STIM1 and Orai1 in these cells. […] Inactivation was restored by addition of STIM1 residues carboxy-terminal to CAD.

[4] = biological target: T3, CAD (Homo sapiens, UniProt Q13586); test: Yeast split ubiquitin assay, Orai1 fragments with CAD; format: binding; conditions: NubG-Orai1 fragment with CAD-Cub-LV in yeast
T3 construct: For STIM1 342-448 (CAD); expressed in transfected cells; host or cells: HEK 293T
Description: Split-Ubiquitin Yeast Two Hybrid Assay. Screening was performed according to the manufacturer's instructions (Dualsystems Biotech). Transformed yeast were selected on media lacking Trp and Leu (-TL). Interaction was observed by cell growth on plates lacking Trp, Leu, and His (TLH) in the presence of 3-aminotriazole (3-AT). Protein interactions were also assessed by measuring lacZ activity using the chromogenic substrate X-gal (5-bromo-4-chloro-3-indolyl-β-galactopyranoside).
Split-Ubiquitin Yeast Two Hybrid Assay. To generate fusion proteins with the N-terminal half of ubiquitin (Nub), full-length or fragments of Orai1 were amplified by PCR and cloned into the pDL2-Nubx vector (Dualsystems Biotech). The Nub sequence in the pDL2-Nubx plasmid contains a point mutation (NubG) that abolishes the spontaneous association of Nub to the C-terminal half of ubiquitin (Cub). The CAD was subcloned into the pAMBV4 vector, which contains Cub fused to a chimeric transcription factor consisting of the DNA binding domain from LexA and the VP16 transactivation domain.
(§2) STIM1-CAD BINDS TO THE N- AND C-TERMINI OF ORAI1. To identify regions of Orai1 important for activation by CAD, we characterized the binding of CAD to Orai1 using two approaches. First we expressed fusions of NubG with the N-terminus, the II-III cytoplasmic loop and the C-terminus of Orai1 in yeast together with different CAD-Cub-LV constructs. […] Based on the level of b-gal activity, CAD appears to interact with the Orai1 C-terminus with a higher affinity than with the N-terminus. We next expressed fusions of YFP with the N-terminus, the II-III loop and the C-terminus of Orai1 in HEK 293T cells together with Flag-myc-CAD.
(§3) To explore the interaction between the N-terminus of Orai1 and CAD in more detail we mapped the subregion within the N-terminus of Orai1 that is responsible for CAD binding, using both the split ubiquitin and HEK 293T co-immunoprecipitation assays.

[5] = biological target: T3, CAD; test: Co-immunoprecipitation of Orai1 fragments with CAD in HEK 293T cells; format: binding; conditions: YFP-tagged Orai1 fragment with Flag-myc-CAD in HEK 293T cells
Description: as §1, §2, §3

T3 sequence (Q13586 342-448): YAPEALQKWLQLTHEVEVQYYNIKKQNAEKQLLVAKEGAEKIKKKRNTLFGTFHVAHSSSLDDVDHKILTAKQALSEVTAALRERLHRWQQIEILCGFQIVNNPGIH
T1 sequence (Q96D31 whole entry, the tested form may be a part): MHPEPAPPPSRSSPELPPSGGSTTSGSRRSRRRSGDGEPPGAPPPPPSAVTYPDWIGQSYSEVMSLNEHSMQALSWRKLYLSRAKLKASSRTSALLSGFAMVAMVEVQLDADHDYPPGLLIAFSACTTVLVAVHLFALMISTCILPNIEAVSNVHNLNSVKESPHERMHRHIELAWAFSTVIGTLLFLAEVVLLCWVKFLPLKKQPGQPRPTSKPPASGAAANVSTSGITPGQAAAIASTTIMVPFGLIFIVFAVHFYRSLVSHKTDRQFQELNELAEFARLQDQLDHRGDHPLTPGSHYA
T2 sequence (Q96D31 whole entry): as the sequence (Q96D31 whole entry, the tested form may be a part) above

Row | Compound | interaction with CAD (b-gal, growth without histidine) [4] | co-immunoprecipitation with CAD [5] | also measured
1 | CAD (342-440): CAD peptide with the last 8 aa deleted | – | – | [Ca2+]i / CRAC channel activation ([1]; HEK 293 cells coexpressing construct and Orai1, no store depletion): eliminates its ability to activate CRAC channels; co-immunoprecipitation with Orai1 [2]: retained the ability to bind to Orai1
2 | [Cl][La]([Cl])[Cl] [La^3+, LaCl3, reference compound] | – | – | effect on CAD-induced sustained elevation of [Ca2+]i ([1]; 10 μM La3+): blocked; effect on CAD-supported current ([3]; YFP-CAD+myc-Orai1 cell, 10 μM LaCl3, 20 mM Ca2+o): rapid inhibition of current
3 | Orai168-91: Orai1 fragment aa 68-91 | interacted strongly | – | –
4 | NCCOB(c1ccccc1)c1ccccc1 [2-APB, 2-Aminoethoxydiphenylborate, reference compound] | – | – | effect on CAD-induced sustained elevation of [Ca2+]i ([1]; 100 μM 2-APB): blocked; effect on constitutive CAD-dependent ICRAC ([3]; YFP-CAD+myc-Orai1 HEK 293 cell, 50 μM 2-APB, 20 mM Ca2+): increase in CAD-dependent current followed by a slower inhibition
5 | II-III loop of Orai1: Orai1 II-III cytoplasmic loop aa 142-177, SEQ ID NO:5 | lack of interaction | not | –
6 | N-terminus of Orai1 (aa 1-91): Orai1 N-terminal fragment aa 1-91, SEQ ID NO:2 | weaker interaction | only very weakly | co-immunoprecipitation with CAD ([5]; listed as N-terminus): interacts
7 | C-terminus of Orai1: Orai1 C-terminal fragment, SEQ ID NO:6 (HFYRSLVSHKTDRQFQELNELAEFARLQDQLDHRGDHPLTPGSHYA; H. sapiens) | strong interaction | interacts | –
8 | Orai148-91: Orai1 N-terminal fragment aa 48-91, SEQ ID NO:3 | interacted strongly | co-immunoprecipitated | co-immunoprecipitation with CAD ([5]; listed as Orai1-NT(48-91)): co-immunoprecipitates
9 | Orai148-70: Orai1 fragment aa 48-70 (SAVTYPDWIGQSYSEVMSLNEHS; UniProt Q96D31 48-70, looked up, fragment) | not | – | –
10 | YFP-CT-STIM1: YFP-tagged CT-STIM1 (236-685) [reference compound] | – | – | constitutive ICRAC ([3]; HEK 293 cells cotransfected with construct and myc-Orai1, from break-in): failed to activate constitutive ICRAC
